Assay results reported in patent US20050272633A1.
Where no end group is shown, it is not given here.

Molecular target: NIK624-947 (C-terminal domain of NIK) (human) (UniProt Q99558)
Experiment: yeast two-hybrid, against cγc 289-369 as reference

Sequence of NIK624-947 (C-terminal domain of NIK) (human) (Q99558 624-947 limits assumed): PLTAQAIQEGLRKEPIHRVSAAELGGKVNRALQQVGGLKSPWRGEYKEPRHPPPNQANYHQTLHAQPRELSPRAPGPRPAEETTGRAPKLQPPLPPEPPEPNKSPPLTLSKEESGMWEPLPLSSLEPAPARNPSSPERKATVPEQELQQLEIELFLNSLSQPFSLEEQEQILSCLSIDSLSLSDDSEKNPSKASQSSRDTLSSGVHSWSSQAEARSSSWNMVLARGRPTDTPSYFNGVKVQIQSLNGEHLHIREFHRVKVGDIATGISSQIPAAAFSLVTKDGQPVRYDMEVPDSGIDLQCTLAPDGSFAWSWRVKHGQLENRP

B1: cγc 289-357 (12 aa deleted from the membrane distal domain) (receptor, not shown: large carriers)
chain: RIPTLKNLEDLVTEYHGNFSAWSGVSKGLAESLQPDYSERLCLVSEIPPKGGALGEGPGASPCNQHSPY
reduction in affinity: 50%

B2: cγc 289-325 (44 aa deleted from the ICD) (receptor, not shown: large carriers)
chain: RIPTLKNLEDLVTEYHGNFSAWSGVSKGLAESLQPDY
modifications: also: fused to GAL4 DNA-binding domain (two-hybrid bait), letters not given here
reduction in affinity: 50%
